Source: US20110263454A1, “Methods of Identifying Functional Characteristics of Promoters, Transcription Modifying Proteins and Transcription Modulating Agents” (Salk Institute for Biological Studies, priority 2008, published 2011)

B1: RXRg: Retinoic X Receptor γ (NR2B3), cDNA driver (protein, UniProt P48443 1-463, looked up)
Retinoic acid receptor …: MYGNYSHFMKFPAGYGGSPGHTGSTSMSPSAALSTGKPMDSHPSYTDTPVSAPRTLSAVGTPLNALGSPYRVITSAMGPPSGALAAPPGINLVAPPSSQLNVVNSVSSSEDIKPLPGLPGIGNMNYPSTSPGSLVKHICAICGDRSSGKHYGVYSCEGCKGFFKRTIRKDLIYTCRDNKDCLIDKRQRNRCQYCRYQKCLVMGMKREAVQEERQRSRERAESEAECATSGHEDMPVERILEAELAVEPKTESYGDMNMENSTNDPVTNICHAADKQLFTLVEWAKRIPHFSDLTLEDQVILLRAGWNELLIASFSHRSVSVQDGILLATGLHVHRSSAHSAGVGSIFDRVLTELVSKMKDMQMDKSELGCLRAIVLFNPDAKGLSNPSEVETLREKVYATLEAYTKQKYPEQPGRFAKLLLRLPALRSIGLKCLEHLFFFKLIGDTPIDTFLMEMLETPLQIT
B2: RORb: RAR-related Orphan Receptor β (NR1F2), cDNA driver (protein, UniProt Q92753 1-470, looked up)
Nuclear receptor ROR-beta: MCENQLKTKADATAQIEVIPCKICGDKSSGIHYGVITCEGCKGFFRRSQQNNASYSCPRQRNCLIDRTNRNRCQHCRLQKCLALGMSRDAVKFGRMSKKQRDSLYAEVQKHQQRLQEQRQQQSGEAEALARVYSSSISNGLSNLNNETSGTYANGHVIDLPKSEGYYNVDSGQPSPDQSGLDMTGIKQIKQEPIYDLTSVPNLFTYSSFNNGQLAPGITMTEIDRIAQNIIKSHLETCQYTMEELHQLAWQTHTYEEIKAYQSKSREALWQQCAIQITHAIQYVVEFAKRITGFMELCQNDQILLLKSGCLEVVLVRMCRAFNPLNNTVLFEGKYGGMQMFKALGSDDLVNEAFDFAKNLCSLQLTEEEIALFSSAVLISPDRAWLIEPRKVQKLQEKIYFALQHVIQKNHLDDETLAKLIAKIPTITAVCNLHGEKLQVFKQSHPEIVNTLFPPLYKELFNPDCATGCK
B3: RXRb: Retinoic X Receptor β (NR2B2), cDNA driver (protein, UniProt P28702 1-533, looked up)
Retinoic acid receptor …: MSWAARPPFLPQRHAAGQCGPVGVRKEMHCGVASRWRRRRPWLDPAAAAAAAVAGGEQQTPEPEPGEAGRDGMGDSGRDSRSPDSSSPNPLPQGVPPPSPPGPPLPPSTAPSLGGSGAPPPPPMPPPPLGSPFPVISSSMGSPGLPPPAPPGFSGPVSSPQINSTVSLPGGGSGPPEDVKPPVLGVRGLHCPPPPGGPGAGKRLCAICGDRSSGKHYGVYSCEGCKGFFKRTIRKDLTYSCRDNKDCTVDKRQRNRCQYCRYQKCLATGMKREAVQEERQRGKDKDGDGEGAGGAPEEMPVDRILEAELAVEQKSDQGVEGPGGTGGSGSSPNDPVTNICQAADKQLFTLVEWAKRIPHFSSLPLDDQVILLRAGWNELLIASFSHRSIDVRDGILLATGLHVHRNSAHSAGVGAIFDRVLTELVSKMRDMRMDKTELGCLRAIILFNPDAKGLSNPSEVEVLREKVYASLETYCKQKYPEQQGRFAKLLLRLPALRSIGLKCLEHLFFFKLIGDTPIDTFLMEMLEAPHQLA

The molecules below were run on hIRF7 promoter (assay: NHR-promoter luciferase screen, hIRF7 promoter). Details: IRF7 promoter reporter; HR without or with its ligand; relative to control.
Type: cell-based, human
In short: (§1)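 CV-1 cells were co-transfected with 50 ng NHR (homodimer or NHR/RXR heterodimer), 100 ng promoter-luciferase construct and 50 ng LacZ. Luciferase was normalized to LacZ and to a no-NHR/no-ligand control.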

Question: With B1 as the molecule, how does the “Normalized Luc. act., normalized to control” value read?
Answer: 1.0

Question: How did the “Normalized Luc. act., normalized to control” value turn out when B2 was run?
Answer: 1.6

Question: B3 was tested. Which “Normalized Luc. act., normalized to control” value did it give?
Answer: 0.3

Same assay, conditions: IRF7 promoter reporter; hormone receptor (HR) without or with its ligand

Question: Which “Luc. act., normalized to lacZ” value does the source give for B1 here?
Answer: 27.4

Question: For B2, which “Luc. act., normalized to lacZ” value is on record?
Answer: 40.9

Question: With B3 as the molecule, how does the “Luc. act., normalized to lacZ” value read?
Answer: 8.9

Same assay, conditions: transcription factor +/- ligand; control = 1.00

Question: How did the “hIRF7 promoter reporter activity” value turn out when B1 was run?
Answer: 1.04

Question: For B2, which “hIRF7 promoter reporter activity” value is on record?
Answer: 1.55

Question: With B3 as the molecule, how does the “hIRF7 promoter reporter activity” value read?
Answer: 0.34

These molecules were tested on mADRP promoter (assay: NHR-promoter luciferase screen, mADRP promoter). Details: ADRP promoter; HR/ligand component.
Type: cell-based, mouse
In short: as §1

Question: With B1 as the molecule, how does the “Luc. act., normalized to lacZ” value read?
Answer: 665.8

Question: What about the “Normalized Luc. act., normalized to control” value of the same molecule?
Answer: 1.3

Question: With B2 as the molecule, how does the “Luc. act., normalized to lacZ” value read?
Answer: 685.3

Question: And the “Normalized Luc. act., normalized to control” value?
Answer: 1.4

Question: Which “Luc. act., normalized to lacZ” value does the source give for B3 here?
Answer: 676.1

Question: And the “Normalized Luc. act., normalized to control” value?
Answer: 1.4

Same assay, conditions: transcription factor +/- ligand; control = 1.00

Question: B1 was tested. Which “mADRP promoter reporter activity” value did it give?
Answer: 1.34

Question: Which “mADRP promoter reporter activity” value does the source give for B2 here?
Answer: 1.38

Question: B3 was tested. Which “mADRP promoter reporter activity” value did it give?
Answer: 1.36

The molecules below were run on SREBP1c promoter (assay: NHR-promoter luciferase screen, SREBP1c promoter). Details: SREBP1c promoter; HR component without or with ligand.
Type: cell-based, mouse
In short: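 Values are luciferase activity normalised to LacZ (transfection control) and to a control lacking NHR or ligand. Read-out at 48 h in CV-1 cells carrying 100 ng promoter-reporter, 50 ng receptor (alone or with RXR) and 50 ng LacZ.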

Question: Which “Luc. act., normalized to lacZ” value does the source give for B1 here?
Answer: 999.7

Question: What about the “Normalized Luc. act., normalized to control” value of the same molecule?
Answer: 3.1

Question: What does the source list for B2?
Answer: Luc. act., normalized to lacZ: 442.5; Normalized Luc. act., normalized to control: 1.4

Question: How did the “Luc. act., normalized to lacZ” value turn out when B3 was run?
Answer: 544.4

Question: What about the “Normalized Luc. act., normalized to control” value of the same molecule?
Answer: 1.7

Same assay, conditions: transcription factor +/- ligand; control = 1.00

Question: How did the “mSREBP1-c promoter reporter activity” value turn out when B1 was run?
Answer: 3.10

Question: For B2, which “mSREBP1-c promoter reporter activity” value is on record?
Answer: 1.37

Question: Which “mSREBP1-c promoter reporter activity” value does the source give for B3 here?
Answer: 1.69
